The results in this text go back to patent publication US20070041999A1 (published 2007).

This series deals with the molecule itself. Description: disassembly by dialysis, size exclusion chromatography / SEC-HPLC; self-association of capsid protein. Here is the method:
Dissasembly of plant produced CCMV virus particles: Purified CCMV was disassembled by dialysis against buffer A (50 mM Tris HCl pH7.5, 500 mM CaCl₂, 1 mM DTT, 0.2 mM PMSF) for 16-29 hours at 4° C. The disassembled virus was centrifuged at 14,000 rpm for 15 min at 4° C. to pellet the viral RNA. The remaining supernatant was dialyzed against buffer B (200 mM Tris HCl pH7.5, 1M NaCl, 1 mM DTT, 0.2 mM PMSF) for 2 hours at 4° C. The CCMV dissasembled into capsid protein dimers that were further purified by FPLC Superose 12 size exclusion chromatography. The diassambled CCMV was analyzed by SEC-HPLC (FIG. 8).

B1: Wild type CCMV coat protein encoded by sgRNA4 (other)
chain: STVGTGKLTRAQRRAAARKNKRNTRVVQPVIVEPIASGQGKAIKAWTGYSVSKWTASCAAAEAKVTSAITISLPNELSSERNKQLKVGRVLLWLGLLPSVSGTVKSCVTETQTTAAASFQVALAVADNSKDVVAAMYPEAFKGITLEQLTADLTIYLYSSAALTEGDVIVHLEVEHVRPTFDDSFTPVY
notes: also called CCMV CP; CCMV capsid protein
As for B1, the binding result was “binds”.
